tested on: K4 kissing-loop RNA reporter; assay: apparent KD of K4 kissing-loop reporter; higher = weaker reporter binding; settings: Eterna round: R107; input ligand: theophylline 20 uM
Protocol: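 RNA-MaP round R107: designed RNA switches with theophylline, tryptophan, arginine or FMN aptamers are transcribed on-chip within common flanks. They are titrated with a labelled K4 kissing-loop RNA reporter in RNA-MaP buffer (100 mM Tris pH 7.5, 80 mM KCl, 4 mM MgCl2), without ligand or with the indicated ligand. Median apparent KD per design.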
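Note: bound reporter read as fluorescence of individual clusters on recovered sequencing chips by microscopy, with normalized cluster intensities fitted with a binding model.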

Sequence	apparent KD of K4 kissing-loop reporter
UAUGUACACUGGUAGUGGUACAUCGAGGAAGGAGCGUGCGCAGGCACAGGUAGGUCGCCUCAGCGCACGAGUGAUGUUCGUGGGC [Ceaqu]	262 nM
AAGGUCACUGCUACAGUGAUGUUGUGGGAGCAGGAUAUGCUGAAAAGCAGAAGGGCUCGCUCCAGGUGACCGAAUGAAACAUUCA [whbob_SS_FMNA__2th176]	792 nM
CUUAGGAGUGGUGUUGAUUAGGGAGCGGAAGGAGCGCCAAUGAUGGCAGGUAGGUCGCCGGAAUGUAGUGAUGUUGCAUAGAGGG [ExArgA.S]	236 nM
GCCGUACGCAUGGAUACCAGCAUUUAUGACACACUGCUAGUGAUGUUAGCUAUGCGUAUAUGCCCUUGGCAGCCAUGCGUACGGC	87.4 nM
AAGCAGUCCCUUGUUGUCAUCGAAGAUGAACGAGGACCGGUACGGCCGCCACUCGGAGUGAUGUUCCGAUGGCUGCAAAAUAAAA [MatMod 21 - Jieux - Exclusion - Tryptophan A]	101 nM
GCCGUAGAUGGAAGGAGCGUGAUAAGUGAAUUAUCCAGUGAUGUUGGAUCUUAGAUAGGAUCACAGGUAGGUCGCCAUCUACGGC	297 nM
GUAGACGUACCUUCAGUGAUGUUGAAGGAUACCAGAUGUUAUCACAUCCCUUGGCAGCCUUGGGAUAACAGUGAGUCGGAAUAUG [Essoaran]	159 nM
UGUGUUGUGUAGUGUUAUGUUUUGAGGGAUACCAGAGUGUUUUUAUUCCCUUGGCAGCUUGAGUGAUGUUUGAUGUUGUUGUUGU [jlljmullin]	219 nM
CAUACGCAUGGAGGAUAUGAGAUUUCUCAUAUUAUUUAAUAUUCUCAGUGAUGUUGAGAAAUAAACUCAGAAGGCCAUGUGUAUG [Ex FMN B 3]	405 nM
GUACCUUGGAAACAAGGACCGCUAACCGAAGGAGCGCGUGAAAACGCAGGUAGGUCGCGGUAGCGGAGUGAUGUUCCGCGAGAGG [Excluson Arginine A GF 14]	268 nM
AGGUCCGAGCCCGGAAGGGCUCGGACCUGUUAGGAUAUGACGUUAUUCAGAAGGGAUGGGUGGAGUGAUGUUCCACCCGCAAGGG [#2 Same State - FMN A Attempt #9 (HarryS)]	102 nM

same assay, conditions: Eterna round: R107; input ligand: tryptophan 2.4 mM

Sequence	apparent KD of K4 kissing-loop reporter
GUGCAGUGAUGUUGCACGAGGAAAGACGAUACCAGCCGUAAAUAAGGCCCUUGGCAGCGUGGGCUAGCAUAAAGUACGCUAGUCU [Mara]	97.1 nM
AAAUAACAGGCAGGAUAUGCUUAGUAAUAAGGCCAUAUAUACGUAUAGAGUGAUGUUUUGUACAAAGCAGAAGGGCUAAAUCCAU [FMN B Excl V1]	167 nM
UUUGGAUUGCACUAAGAGCGCAAGCGCCAACGAGGACCGGUACGGCCGCCACUCGCGGAGGAGUCCAGUGAUGUUGGACGGCCCG [Onenusan]	172 nM
UGACUGGAUGGAAGGAGCGCUAAACUCCUAGUGAUGUUAGGGAUAUGAGGCAAAGCCUUGAGGCAGGUAGGUCGCCAUCUAGUCU [FiskerMod 25 - Jieux - Same State - Arginine B]	145 nM
CUAUAAGUGCCGAGUGAUGUUCGGCCAAUACGAGGACCGGUACGGCCGCCACUCGGUCAGUGAGUGCCCACCGGGCGUGGCUGAC [Leedgeis]	124 nM
CCGAAGAACCAGUGAUGUUGGUUGACUAGACAGGAUAUGAGCAACAUCAGAAGGGUCUGGCUUCGGGAGUGGGUCACGCUGACCU [Iserreanor]	808 nM
GCUAUGGUAGGAAGGAGCGCUACUUUGUUUUUACGAGUGAUGUUCGGUAGCAGAGUGUUAAAGCAGGUAGGUCGCCUACUAUAGC [Arginine B K4 19]	280 nM
GCAUAGGCCCAUCGGAAUUCGAGACCAGCACGAGGACCGGUACGGCCGCCACUCGUGCAGUGAUGUUGCACGAUUGGGAAACCGC [Beanveceti]	111 nM
ACGUGCACCAGUGAUGUUGGAAAAUAUGAAGGAGCGGGAGAAAACCCAGGUAGGUCGCAUAAUAGCACGAGCCACGAAAGUGGCA	107 nM
AAUUCUCUUUUUGAUACCAGCGAAUCUGAGUGAUGUUCUAAGCCAUACAAUUGAGUAAAUCGCCCUUGGCAGCAAUUCGUGGGUG [theeternabot_exclusion_KL_Theo_B_20]	567 nM
UCGCACCUGUGGGCGAGGCCUAUAAUUGUCAAGGAUAUAGAUCAUUCUAGAAGGUGACACUUCGCGAGUGAUGUUCGGGAAAUGC [theeternabot_sameState_KL_FMN_A_8]	179 nM
GACGGGCAGUGAUGUUGCCGGUCUCUUGGACGAGGACCGGUACGGCCGCCACUCGAUCUGAUGCAAGAAUCGCAUCUUUUAAUAA [Biququan]	273 nM
AAAGACUGACUGCAAUUAGCAGUCAGUCAACGAGGACCGGUACGGCCGCCACUCGGGUCCUAGAGUGAUGUUCUAAUAAUAUAAU [Default title]	167 nM
GCCUAGGCUCGAAAGAGCCUAGGCUGGGCUCAGGAUAUCCGGAAACGGAGAAGGGAGGGACUAGUGAUGUUAGGGAUUCCCUAUG	203 nM
CCAUCGCUAUUCGAUACCAGUCAAGAGGUCUUUGGCCUCUUAAUGGAGUGAUGUUCCUUAGACCCUUGGCAGCGAAUAGUGAUGG [Theophylline B K4 13]	124 nM
AACGCUGCCUGAGGAUAUAGAAACGAGUGAUGUUCGUGGAACGAGACCAGUGAUGUUGGCCUAUUUCUAGAAGGCAGGCAACCGC [Exclusion FMN B GF 1]	125 nM
AACGCUCAAUAGAGAGUGAUGUUCUCUAUACGAGGACCGGUACGGCCGCCACUCGAAUGUAUAGCGAAACGCUAUACACAGUGGU [Tryp A SS t2]	150 nM
AAAAUAAACCAGUGAUGUUGGUGUCUAGAUACCAGCGAUAAUAAUCGCCCUUGGCAGCUACGGACGUACAAAAUAAGUACGUCCU [MatMod 10 - Jieux - Same State - Theophylline A]	460 nM
CGCAGUGAUGUUGCUAUUGUUCUUGGUUAACGAGGACCGGUACGGCCGCCACUCGAUGUCUGUCUAGUCCAGUGUUUUUUUGAGU [whbob_EX_Tryp_A_t9]	310 nM
UGACAUUGCUCAGAUACCAGUCAUGAGGAUCACCCAUGGGCCAAACGUACAAUAAUAAAUGACCCUUGGCAGCUGAGCAAUGUCU [TheoBX 14]	62.8 nM
CCUAUCUCGUAGGAUACCAGACUAUGAUCUAUGAUCAAUGCCAUCACCGAGUGAUGUUCGGUCCCUUGGCAGCCUAUGAGAUGGG [#13 K4 Theophylline B Exclusion]	154 nM
UUAUUAUUCAGUGAUGUUGAAUUUAUUUCAGAGGAUAUGCAUAAAUGCAGAAGGCUGUAAUACUAUACUUUAAUAAAUUAAAUUU [JR_SSFMNA_Sub018]	203 nM

Sequence	apparent KD of K4 kissing-loop reporter
GUUACGCAUGGAAGGAGCGCUCUCAUACUUAAUAACACAGUGAUGUUGUGAAUUUGUAUAAAGCAGGUAGGUCGCCAUGUGUAAC [Ex Arginine B K4 7]	346 nM
GGUAGCAUGGCGGCCGCCACUACCUAGUGAUGUUAGGCUGUGGACAUAGGAGCAAGACAAAUAUGUAGGACCGGGCCAUGCUACC	131 nM
AUAUCUAGAGUGAUGUUCUAGUAAGCUGAAGGAGCGGACGAAAGUCCAGGUAGGUCGCAGUGUUUUUACACCUCAUGUGUAGGAG [KL-SSArg-A7 #analogue]	130 nM
GCAGUGAUGUUGCACGAGUAGGCUGGAGUACGAGGACCGGUACGGCCGCCACUCGUACGAAAGUCGCUAAUUUAUGGAAUGGUGA [#07 K4 Tryptophan A Same State]	467 nM
AGUGAUGUUGUGUUAUGUUAGUGAAGUGAUCGAGGACCGGUACGGCCGCCACUCGAGUGAUGAGUGAGUGAUGUUUGUUUAGGGA [popmullin]	486 nM
UGGAGUUGACGAAAAGUCAACUCCCGAGAAGGAGCGGACGAAAGUCCAGGUAGGUCGCUCACUACCAGUGAUGUUGGUACUUAAA	138 nM
CGCAGUGAUGUUGCGAGCAGCUACAGGGAAGGAGCGCUUUAGUAAGCAGGUAGGUCGCCCACGCAGUGAUGUUGCGUCAUAGGGU [Exclusion Arginine A GF 20]	111 nM
CUAUGGAAACAUAGUAAUCGGGAAACCGAUACCAGUAUGGAAACAUACCCUUGGCAGCGGAAUGAUUAAACGGAGUGAUGUUCCG [Theophylline A K4 17]	261 nM
CCAUCGCUAUUCGAUACCAGUCAUUUUUUAUUUUUUUUUUUUUUUGGAGUGAUGUUCCAAGACCCUUGGCAGCGAAUAGUGAUGG [whbob_SS_Theo_B_th77]	68.1 nM
GUCGGGACUCGAGGAUAUCAGUGGAGGCCAGUGAUGUUGGCCGUCCCGGUAGUUAAAAUUUUACCCUGAGAAGGCGAUUUCUGUC [Veceinusqu]	138 nM
AAUAAAAUCACGGCCGCCACUGAAUUAUUGGUAAGUAGUGAUGUUACUUUACAUAUCUAAUUUAACAGGACCGGGUGAAUAUUUA [#17 K4 Tryptophan B Exclusion]	131 nM
UAUGUACACUGGUAGUGGUACAUCGAGGAAGGAGCGUGCGCAGGCACAGGUAGGUCGCCUCAGCGCACGAGUGAUGUUCGUGGGC [Ceaqu]	288 nM
AAGGUCACUGCUACAGUGAUGUUGUGGGAGCAGGAUAUGCUGAAAAGCAGAAGGGCUCGCUCCAGGUGACCGAAUGAAACAUUCA [whbob_SS_FMNA__2th176]	1110 nM
CUUAGGAGUGGUGUUGAUUAGGGAGCGGAAGGAGCGCCAAUGAUGGCAGGUAGGUCGCCGGAAUGUAGUGAUGUUGCAUAGAGGG [ExArgA.S]	267 nM
GCCGUACGCAUGGAUACCAGCAUUUAUGACACACUGCUAGUGAUGUUAGCUAUGCGUAUAUGCCCUUGGCAGCCAUGCGUACGGC	133 nM
AAGCAGUCCCUUGUUGUCAUCGAAGAUGAACGAGGACCGGUACGGCCGCCACUCGGAGUGAUGUUCCGAUGGCUGCAAAAUAAAA [MatMod 21 - Jieux - Exclusion - Tryptophan A]	108 nM
GCCGUAGAUGGAAGGAGCGUGAUAAGUGAAUUAUCCAGUGAUGUUGGAUCUUAGAUAGGAUCACAGGUAGGUCGCCAUCUACGGC	192 nM
GUAGACGUACCUUCAGUGAUGUUGAAGGAUACCAGAUGUUAUCACAUCCCUUGGCAGCCUUGGGAUAACAGUGAGUCGGAAUAUG [Essoaran]	168 nM
UGUGUUGUGUAGUGUUAUGUUUUGAGGGAUACCAGAGUGUUUUUAUUCCCUUGGCAGCUUGAGUGAUGUUUGAUGUUGUUGUUGU [jlljmullin]	184 nM
CAUACGCAUGGAGGAUAUGAGAUUUCUCAUAUUAUUUAAUAUUCUCAGUGAUGUUGAGAAAUAAACUCAGAAGGCCAUGUGUAUG [Ex FMN B 3]	304 nM
GUACCUUGGAAACAAGGACCGCUAACCGAAGGAGCGCGUGAAAACGCAGGUAGGUCGCGGUAGCGGAGUGAUGUUCCGCGAGAGG [Excluson Arginine A GF 14]	165 nM
AGGUCCGAGCCCGGAAGGGCUCGGACCUGUUAGGAUAUGACGUUAUUCAGAAGGGAUGGGUGGAGUGAUGUUCCACCCGCAAGGG [#2 Same State - FMN A Attempt #9 (HarryS)]	86.5 nM

Reference: the supplement of paper PMC9170038
